From patent US20100310509A1 (published 2010)
Blank lines part the entries; values can stand above or below the binder they belong to.

Columns and labels:
[1] = target: T1, soluble human OSMR (Oncostatin M receptor) (human, UniProt Q99650 28-740); assay: SPR (SensiQ), LIF immobilised, soluble OSMR injected (150nM, 100nM, 50nM, 25nM, 10nM, 5nM)
T1 construct: extracellular domain; Bought; also called soluble OSMR
T1 sequence (looked up): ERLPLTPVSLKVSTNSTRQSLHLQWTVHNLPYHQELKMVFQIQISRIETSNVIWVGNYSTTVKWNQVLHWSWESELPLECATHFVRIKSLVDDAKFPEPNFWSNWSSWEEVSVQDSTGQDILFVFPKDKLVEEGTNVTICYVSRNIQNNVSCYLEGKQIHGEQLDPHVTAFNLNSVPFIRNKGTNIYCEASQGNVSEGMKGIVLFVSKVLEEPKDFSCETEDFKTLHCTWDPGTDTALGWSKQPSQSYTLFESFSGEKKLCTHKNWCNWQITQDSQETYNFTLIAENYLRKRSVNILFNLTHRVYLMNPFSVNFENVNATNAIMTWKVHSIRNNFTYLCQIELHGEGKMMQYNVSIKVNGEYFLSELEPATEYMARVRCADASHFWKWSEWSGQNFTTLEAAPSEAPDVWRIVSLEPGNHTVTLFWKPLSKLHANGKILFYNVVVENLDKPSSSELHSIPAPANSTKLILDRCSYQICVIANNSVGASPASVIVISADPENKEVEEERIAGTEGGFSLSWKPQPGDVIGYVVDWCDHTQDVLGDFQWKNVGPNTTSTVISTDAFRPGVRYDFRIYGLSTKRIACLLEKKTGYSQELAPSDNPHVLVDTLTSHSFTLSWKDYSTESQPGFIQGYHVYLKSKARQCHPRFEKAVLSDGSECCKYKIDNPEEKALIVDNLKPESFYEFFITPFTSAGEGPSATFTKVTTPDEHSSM
Description: (§1) Surface Plasmon Resonance (SPR): Kinetic parameters of the interactions between receptor domains and the cytokines LIF, OSM-WT, OSM-M1 or OSM-M2 were analyzed by SPR using the SENSIQ® system (ICX Technologies, Oklahoma City, Okla.) as described by the manufacturer protocol. Briefly, a carboxyl sensor with two channels was installed in SENSIQ® and allowed to thermally equilibrate for about 15 minutes. The channels were initially cleaned with a 3 minute injection of 0.1 M HCl. An activation solution of 2 mM 1-Ethyl-3-[3-dimethylaminopropyl]carbodiimide hydrochloride (EDC) and 0.5 mM N-hydroxysulfo succinimide (NHS) was prepared in deionized water immediately before injection. Activation solution was injected over both channels for approximately 3 minutes followed by a 10 minute injection of 50 μg/mL cytokine (LIF, OSM-WT, OSM-M1 or OSM-M2) in 10 mM acetate buffer, pH 5.0, over channel 1. […] Unreacted NHS esters were capped with a 3 minute injection of 1 M ethanolamine, pH 8.0, over both channels. […] A concentration series of soluble LIFR (# 249-LR-050/CF, R&D Systems, Minneapolis, Minn.), soluble OSMR (# 4389-OR-50, R&D Systems, Minneapolis, Minn.) or soluble gp130 (# 228-GP-050/CF, R&D Systems, Minneapolis, Minn.) in running buffer (10 mM HEPES pH 7.4, 150 mM NaCl, 3.4 mM EDTA, 0.005% Tween-20) were injected over both channels at a flow rate of 25 μl/min. […]

[2] = target: T1, soluble human OSMR (Oncostatin M …); assay: SPR (SensiQ), OSM-WT immobilised, soluble OSMR injected (150nM, 100nM, 50nM, 25nM, 10nM, 5nM)
Description: as §1

[3] = target: T1, soluble human OSMR (Oncostatin M …); assay: SPR (SensiQ), OSM-M2 immobilised, soluble OSMR injected (150nM, 100nM, 50nM, 25nM, 10nM, 5nM)
Description: as §1

binding result [1]: no binding (tested: 150 nM)
B1: human leukemia inhibitory factor (LIF) (ligand)
chain: not shown
notes: Purified recombinant protein; also called hLIF

binding result [2]: no binding (tested: 150 nM)
B2: OSM-WT ('AGA' modified human Oncostatin M, referred to as wild-type OSM) (ligand)
chain: AAIGSCSKEYRVLLGQLQKQTDLMQDTSRLLDPYIRIQGLDVPKLREHCRERPGAFPSEETLRGLGRRGFLQTLNATLGCVLHRLADLEQRLPKAQDLERSGLNIEDLEKLQMARPNILGLRNNIYCMAQLLDNSDTAEPTKAGAGASQPPTPTPASDAFQRKLEGCRFLHGYHRFMHSVGRVFSKWGESPN
notes: also called hOSM with AGA modification; not shown: N-terminal FLAG tag left after thrombin removal of GST

binding result [3]: no binding (tested: 150 nM)
B3: OSM-M2 (OSM with BC loop truncated from 12 to 4 amino acids) (ligand)
chain: AAIGSCSKEYRVLLGQLQKQTDLMQDTSRLLDPYIRIQGLDVPKLREHCRERPGAFPSEETLRGLGRRGFLQTLNATLGCVLHRLADLEQRLGGGNIEDLEKLQMARPNILGLRNNIYCMAQLLDNSDTAEPTKAGAGASQPPTPTPASDAFQRKLEGCRFLHGYHRFMHSVGRVFSKWGESPN
notes: Made from the 'AGA' modified OSM template; lacks the thrombin site; not shown: N-terminal FLAG tag left after thrombin removal of GST
